{
  "source": "patent US20240239894A1",
  "about": "“THERAPEUTIC BINDING MOLECULES” (MedImmune Limited, priority 2020, published 2024)",
  "molecules": {"B1": {"name": "E02-GL: germlined ZY0EQD-E02, VH SEQ ID NO: 45, VL SEQ ID NO: 34; antibody intermediate of E02-GL-SG3932 (antibody, V domains shown)", "VH": "QVQLQQWGAGLLKPSETLSLACTVYGGSFSGYYWNWIRQPPGKGLEWIGEINHSGSTSYNPSLKSRVTISVDTSKNQFSLKLSSVTAADTAVYYCARVLYNWNVDSWGQGTLVTVSS", "VL": "DIQMTQSPSSLSASVGDRVTITCRASQDIRNDVGWYQQKPGKAPKRLIYAASRLQSGVPSRFSGSGSGTEFTLTISSLQPEDFATYYCLQHNSYPRTFGQGTKVEIK"}},
  "key": {"human B7-H4": {"biological_target": "T1, human B7-H4 (Homo sapiens, UniProt Q7Z7D3)", "T1 construct": "Human B7H4 ECD; FlagHis10 or FcHis6 (either; equivalent data); made in house", "T1 sequence (Q7Z7D3 25-259 limits assumed)": "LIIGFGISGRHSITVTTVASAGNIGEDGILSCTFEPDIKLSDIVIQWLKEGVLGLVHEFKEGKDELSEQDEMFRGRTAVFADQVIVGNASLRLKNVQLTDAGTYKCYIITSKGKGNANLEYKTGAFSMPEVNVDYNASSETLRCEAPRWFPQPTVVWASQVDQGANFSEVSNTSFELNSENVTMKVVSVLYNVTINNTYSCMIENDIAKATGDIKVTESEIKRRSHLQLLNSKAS", "experiment": "ELISA comparison with 1D11", "format": "binding", "conditions": "E02-GL compared with 1D11", "procedure": "The binding of the anti-B7-H4 antibodies (e.g. intermediate ZY0EQD-E02-GL and anti-B7-H4 mAB D11) to B7-H4 (e.g. human and mouse B7-H4) was measured by ELISA. Recombinant B7-H4-Fc (e.g. Human B7-H4-Fc and mouse B7-H4-Fc) proteins were diluted into DPBS to give 5 ug/ml solution. 50 μL of the diluted stocks was then added Nunc Maxisorp 96 well plates. 50 μL/well DPBS was added to control wells. The antigens were allowed to adsorb to the plates overnight at 4° C., washed once with DPBS and incubated with blocking buffer (3% w/v Marvel in DPBS) at room temperature for 1 hour. The plates were then washed once with PBS and incubated for 1 hour with 6.4 pM-100 nM anti-B7-H4 antibody (e.g. intermediate ZY0EQD-E02-GL or anti-B7-H4 mAb D11) diluted in DPBS containing 1% BSA, 0.3% Triton X-100. The plates were then washed three times with PBS containing 0.1% Tween and incubated with peroxidase-conjugated goat anti-human light chain antibody (Sigma Aldrich, Poole, UK) for 1 hour at room temperature. The plates were then washed five times with PBS containing 0.1% Tween. Following a 5-minute incubation with TMB peroxidase substrate, the reaction was stopped by the addition of 0.5 M H2SO4. Absorbance at 450 nm (A450) was measured using an Envision multilabel plate reader (Perkin Elmer, Seer Green, UK). […]"}, "HT29 hB7H4 clone 44": {"system": "HT29 hB7H4 clone 44", "experiment": "E02-GL MESF on cell line", "format": "cell-based, human"}, "MDA-MB-468": {"system": "MDA-MB-468", "experiment": "E02-GL MESF on cell line", "format": "cell-based, human", "procedure": "A number of cancer cell lines were treated with clone E02-GL-SG3249 (e.g. conjugated to a cytotoxin), as outlined in Table 15."}, "human B7-H4 antigen": {"biological_target": "T2, human B7-H4 antigen (Homo sapiens, UniProt Q7Z7D3)", "T2 sequence (Q7Z7D3 25-282)": "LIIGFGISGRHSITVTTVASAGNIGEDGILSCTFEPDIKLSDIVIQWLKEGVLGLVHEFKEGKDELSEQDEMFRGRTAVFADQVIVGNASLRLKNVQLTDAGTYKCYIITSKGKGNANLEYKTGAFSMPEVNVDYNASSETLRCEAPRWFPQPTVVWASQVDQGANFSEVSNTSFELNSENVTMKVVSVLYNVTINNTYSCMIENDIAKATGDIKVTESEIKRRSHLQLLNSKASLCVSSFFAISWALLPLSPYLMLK", "experiment": "SPR, antibody capture method", "format": "binding", "procedure": "To assess whether conjugation of the topoisomerase 1 linker-warhead affected binding properties of the E02-INT antibody, the binding affinity of E02-INT and E02-GL-SG3932 were measured using a DELFIA-ELISA method and an SPR method. […] The kinetic rate constants (kon and koff) and equilibrium dissociation constants (KD) of E02-INT and E02-GL-SG3932 for human B7-H4 antigen was also determined by SPR, using an antibody capture method."}, "[1]": {"system": "HT29-huB7-H4 Clone 4 and HT29-huB7-H4 Clone 26", "experiment": "Flow cytometry binding", "format": "cell-based, human", "text": "(§1) Flow cytometry was used to measure binding of antibody E02-INT and E02-GL-SG3932 to the human breast cancer cell lines MX-1 and MDA-MB-468, and to engineered HT29 colon cancer cells stably expressing human B7-H4."}, "MDA-MB-468 cells": {"system": "MDA-MB-468 cells", "experiment": "Flow cytometry binding", "format": "cell-based, human", "conditions": "endogenously-expressed B7-H4", "text": "as §1"}, "[2]": {"system": "SKBR3 cell line (target cell)", "experiment": "ADCC with primary human NK cells", "format": "cell-based", "conditions": "1 μg/mL; NK cells from healthy donors", "text": "When IgG antibodies bind cell surface antigens via their Fab domains, the Fc portion of the antibodies can engage with FcγRIIIa on natural killer cells. The interaction of the Fc domain with FcγRIIIa induces cross-linking of the FcγRs, which triggers the release of cytotoxic granules containing perforin and granzymes, leading to the death of the target cell, a process called antibody-dependent cellular cytotoxicity (ADCC). The potential of antibody E02-INT and E02-GL-SG3932 to initiate ADCC activity was evaluated utilizing isolated primary human NK cells and the human breast cancer SKBR3 cell line as the target cell.\nNext, human breast cancer SK-BR-3 cells were co-cultured with NK cells isolated from six healthy donors in the presence of 1 μg/mL E02-GL-SG3932, antibody intermediate E02-INT, isotype-matched control antibody NIP228, and the isotype-matched control ADC NIP228-SG3932 (FIG. 37). ADCC activity was evaluated by Incycte® Annexin V Dye binding of extracellular surface exposure of phosphatidyl serine on apoptotic cells, yielding a bright and stable red fluorescent signal. The fold-change was based on maximum cell death of non-drug treated NK/SK-BR-3 co-cultured cells. Maximum cell death was calculated by dividing the average red objects in experimental wells by the average maximum cell death in Staurosporine treated SK-BR-3 cells."}, "[3]": {"system": "MX-1 breast cancer xenograft", "experiment": "Xenograft efficacy", "format": "in vivo, CB-17 SCID mice", "conditions": "10 mg/kg", "procedure": "The antitumor activity of antibody intermediate E02-INT and E02-GL-SG3932 was investigated in human tumor xenograft mouse models using immunodeficient CB-17 SCID mice.\nThe effect of E02-GL-SG3932, the isotype-matched control ADC NIP228-SG3932, and E02-INT, the antibody intermediate of E02-GL-SG3932 was evaluated in the MX-1 breast cancer xenograft model. Animals were injected SC with MX-1 cells and after tumors grew in volume to a mean of 270 mm3, animals were randomized and each mouse received an IV injection of test or control articles."}},
  "note": "Entries after “also recorded” stand apart in the source; their conditions may differ.",
  "data": [
    {"molecule": "B1", "values": [
      {"measurement": "binding (affinity) to human B7-H4 by ELISA", "setting": "human B7-H4", "value": "significantly better binding; also recorded: significantly stronger binding"},
      {"measurement": "E02-GL MESF", "setting": "HT29 hB7H4 clone 44", "value": "147,125 MESF"},
      {"measurement": "E02-GL MESF", "setting": "MDA-MB-468", "value": "92,157 MESF"},
      {"measurement": "Ka", "setting": "human B7-H4 antigen", "value": 93800, "unit": "M⁻¹ s⁻¹"},
      {"measurement": "Kd", "setting": "human B7-H4 antigen", "value": 31.1, "unit": "nM"},
      {"measurement": "Kd (s^−1)", "setting": "human B7-H4 antigen", "value": 0.00292, "unit": "s⁻¹"},
      {"measurement": "Rmax (RU)", "setting": "human B7-H4 antigen", "value": 56.8, "unit": "RU"},
      {"measurement": "cellular binding", "setting": "[1]", "value": "bound similarly"},
      {"measurement": "cellular binding", "setting": "MDA-MB-468 cells", "value": "bound"},
      {"measurement": "ADCC activity beyond untreated co-cultured cells", "setting": "[2]", "value": "significant increase in ADCC activity"},
      {"measurement": "TGI", "setting": "[3]", "value": "−1", "unit": "%"}
    ]}
  ]
}
